Data published in US20190241648A1 (STATEN BIOTECHNOLOGY B V, published 2019).
Ends that are not written are not given here.

What was measured:
Experiment in all cases: peptide microarray
ApoC3 peptide … F47Q = target: T1, ApoC3 peptide … F47Q (human, not fully specified (bridges); also: cyclic constrained)
T1 peptide: ARGWVTDGQSSLK
Summary of the method: (§1)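 Peptide microarrays of ApoC3-derived peptides incubated with antibody samples, then stained with goat anti-human IgG (Fc) DyLight680 (1:5000) and anti-HA DyLight800 (1:2000) control. Read-out by fluorescence scanning at intensities 7/7 (red/green); a secondary-only pre-stain checked background, HA frame peptides served as quality control.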

ApoC3 peptide … S49M = target: T2, ApoC3 peptide … S49M (human, cyclic constrained)
T2 peptide: ARGWVTDGFSMLK
Summary of the method: as §1

ApoC3 peptide … D45L = target: T3, ApoC3 peptide … D45L (human, cyclic constrained)
T3 peptide: ARGWVTLGFSSLK
Summary of the method: as §1

ApoC3 peptide … R40T = target: T4, ApoC3 peptide … R40T (human, not fully specified (bridges); also: cyclic constrained)
T4 peptide: ATGWVTDGFSSLK
Summary of the method: as §1

ApoC3 peptide … A39S = target: T5, ApoC3 peptide … A39S (human, not fully specified (bridges); also: cyclic constrained)
T5 peptide: SRGWVTDGFSSLK
Summary of the method: as §1

ApoC3 peptide … D45M = target: T6, ApoC3 peptide … D45M (human, cyclic constrained)
T6 peptide: ARGWVTMGFSSLK
Summary of the method: as §1

ApoC3 peptide … D45F = target: T7, ApoC3 peptide … D45F (human, not fully specified (bridges); also: cyclic constrained)
T7 peptide: ARGWVTFGFSSLK
Summary of the method: as §1

ApoC3 peptide … S48G = target: T8, ApoC3 peptide … S48G (human, not fully specified; cyclic constrained)
T8 peptide: ARGWVTDGFGSLK
Summary of the method: as §1

ApoC3 peptide … V43S = target: T9, ApoC3 peptide … V43S (human, not fully specified (bridges); also: cyclic constrained)
T9 peptide: ARGWSTDGFSSLK
Summary of the method: as §1

ApoC3 peptide … G46T = target: T10, ApoC3 peptide … G46T (human, thioether (positions not given here); also: cyclic constrained)
T10 peptide: ARGWVTDTFSSLK
Summary of the method: as §1

ApoC3 peptide … K51F = target: T11, ApoC3 peptide … K51F (human, thioether (positions not given here); also: cyclic constrained)
T11 peptide: ARGWVTDGFSSLF
Summary of the method: as §1

ApoC3 peptide … S48T = ApoC3 peptide … S48T (human, cyclic constrained)
Summary of the method: as §1

ApoC3 peptide … W42C = target: T12, ApoC3 peptide … W42C (human, not fully specified (bridges); also: cyclic constrained)
T12 peptide: ARGCVTDGFSSLK
Summary of the method: as §1

ApoC3 peptide … L50P = target: T13, ApoC3 peptide … L50P (human, not fully specified (bridges); also: cyclic constrained)
T13 peptide: ARGWVTDGFSSPK
Summary of the method: as §1

ApoC3 peptide … G41R = target: T14, ApoC3 peptide … G41R (human, also: cyclic constrained)
T14 peptide: ARRWVTDGFSSLK
Summary of the method: as §1

ApoC3 peptide … F47R = target: T15, ApoC3 peptide … F47R (human, also: cyclic constrained)
T15 peptide: ARGWVTDGRSSLK
Summary of the method: as §1

ApoC3 peptide … T44Y = target: T16, ApoC3 peptide … T44Y (human, not fully specified (bridges); also: cyclic constrained)
T16 peptide: ARGWVYDGFSSLK
Summary of the method: as §1

ApoC3 peptide … K51P = target: T17, ApoC3 peptide … K51P (human, not fully specified; cyclic constrained)
T17 peptide: ARGWVTDGFSSLP
Summary of the method: as §1

ApoC3 peptide … A39E = target: T18, ApoC3 peptide … A39E (human, cyclic constrained)
T18 peptide: ERGWVTDGFSSLK
Summary of the method: as §1

ApoC3 peptide … D45K = target: T19, ApoC3 peptide … D45K (human, cyclic constrained)
T19 peptide: ARGWVTKGFSSLK
Summary of the method: as §1

ApoC3 peptide … S49G = target: T20, ApoC3 peptide … S49G (human, cyclic constrained)
T20 peptide: ARGWVTDGFSGLK
Summary of the method: as §1

ApoC3 peptide … T44M = target: T21, ApoC3 peptide … T44M (human, not fully specified (bridges); also: cyclic constrained)
T21 peptide: ARGWVMDGFSSLK
Summary of the method: as §1

ApoC3 peptide … R40I = target: T22, ApoC3 peptide … R40I (human, not fully specified (bridges); also: cyclic constrained)
T22 peptide: AIGWVTDGFSSLK
Summary of the method: as §1

ApoC3 peptide … R40M = target: T23, ApoC3 peptide … R40M (human, not fully specified (bridges); also: cyclic constrained)
T23 peptide: AMGWVTDGFSSLK
Summary of the method: as §1

ApoC3 peptide … K51I = target: T24, ApoC3 peptide … K51I (human, not fully specified; cyclic constrained)
T24 peptide: ARGWVTDGFSSLI
Summary of the method: as §1

ApoC3 peptide … S49I = target: T25, ApoC3 peptide … S49I (human, cyclic constrained)
T25 peptide: ARGWVTDGFSILK
Summary of the method: as §1

ApoC3 peptide … L50I = target: T26, ApoC3 peptide … L50I (human, not fully specified; cyclic constrained)
T26 peptide: ARGWVTDGFSSIK
Summary of the method: as §1

ApoC3 peptide … G46M = target: T27, ApoC3 peptide … G46M (human, not fully specified (bridges); also: cyclic constrained)
T27 peptide: ARGWVTDMFSSLK
Summary of the method: as §1

ApoC3 peptide … R40G = target: T28, ApoC3 peptide … R40G (human, not fully specified (bridges); also: cyclic constrained)
T28 peptide: AGGWVTDGFSSLK
Summary of the method: as §1

ApoC3 peptide … T44K = target: T29, ApoC3 peptide … T44K (human, not fully specified (bridges); also: cyclic constrained)
T29 peptide: ARGWVKDGFSSLK
Summary of the method: as §1

ApoC3 peptide … D45R = target: T30, ApoC3 peptide … D45R (human, cyclic constrained)
T30 peptide: ARGWVTRGFSSLK
Summary of the method: as §1

B1: anti-ApoC3 antibody 14C7 (antibody, V domains shown)
VH: QVQVQESGPGLVKPSQTLSLTCTVSGGSITTNSYYWSWIRQPPGKGLEWMGAIDYSGDTYYSPSLKSRTSISRDTSKNQFTLQLTSVTPEDTAVYYCVSRIPTGEYWGQGTQVTVSS
VL: QTVVTQEPSLSVSPGGTVTLTCGLNSGSVTSSNYPDWYQQTPGQAPRLLIYNTNSRHSGVPSRFSGSISGNKAALTITGAQPEDEADYYCALYMGSDSVVFGGGTHLTVL
notes: it was detected with goat anti-human IgG (Fc); also called mAb 14C7; llama antibody 14C7
Which results are given for B1?
% of binding to wild-type peptide (ApoC3 peptide … F47Q): 0%; % of binding to wild-type peptide (ApoC3 peptide … S49M): 1.86%; % of binding to wild-type peptide (ApoC3 peptide … D45L): 17.1%; % of binding to wild-type peptide (ApoC3 peptide … R40T): 38.7%; % of binding to wild-type peptide (ApoC3 peptide … A39S): 81.4%; % of binding to wild-type peptide (ApoC3 peptide … D45M): 21%; % of binding to wild-type peptide (ApoC3 peptide … D45F): 0%; % of binding to wild-type peptide (ApoC3 peptide … S48G): 3.7%; % of binding to wild-type peptide (ApoC3 peptide … V43S): 1.54%; % of binding to wild-type peptide (ApoC3 peptide … G46T): 0%; % of binding to wild-type peptide (ApoC3 peptide … K51F): 6.24%; % of binding to wild-type peptide (ApoC3 peptide … S48T): 88.3%; % of binding to wild-type peptide (ApoC3 peptide … W42C): 61.6%; % of binding to wild-type peptide (ApoC3 peptide … L50P): 0%; % of binding to wild-type peptide (ApoC3 peptide … G41R): 19.4%; % of binding to wild-type peptide (ApoC3 peptide … F47R): 0%; % of binding to wild-type peptide (ApoC3 peptide … T44Y): 0%; % of binding to wild-type peptide (ApoC3 peptide … K51P): 0.24%; % of binding to wild-type peptide (ApoC3 peptide … A39E): 98.9%; % of binding to wild-type peptide (ApoC3 peptide … D45K): 39.4%; % of binding to wild-type peptide (ApoC3 peptide … S49G): 0%; % of binding to wild-type peptide (ApoC3 peptide … T44M): 0%; % of binding to wild-type peptide (ApoC3 peptide … R40I): 35.1%; % of binding to wild-type peptide (ApoC3 peptide … R40M): 69.6%; % of binding to wild-type peptide (ApoC3 peptide … K51I): 0.86%; % of binding to wild-type peptide (ApoC3 peptide … S49I): 0%; % of binding to wild-type peptide (ApoC3 peptide … L50I): 9.47%; % of binding to wild-type peptide (ApoC3 peptide … G46M): 0%; % of binding to wild-type peptide (ApoC3 peptide … R40G): 62.9%; % of binding to wild-type peptide (ApoC3 peptide … T44K): 0%; % of binding to wild-type peptide (ApoC3 peptide … D45R): 20.1%
